Assay results taken from publication PMC11862925.

Tests used:
ACE2-COMP (human | rat) = ACE2-COMP (human | rat) (UniProt Q9BYF1); assay: negative stain electron microscopy
[1] = biological target: SARS-CoV-2 RBD (residues 319–541), Wuhan-Hu-1 (SARS-CoV-2) (UniProt P0DTC2); assay: BLI

ACE2-COMP (from UniProt Q9BYF1 19-615; P35444 29-73)
stoichiometry N (ACE2-COMP (human | rat)): 5 | Kd [1]: < 25 pM | percent of bound ACE2 still attached after more than 8 h of dissociation [1]: 90%
